# Patent US20160320413A1 (D GEN, published 2016)
# B1: ICSM18 anti-PrP antibody (D-Gen Ltd, product code 0130-01810), biotinylated (antibody, V domains shown)
# VH: EVQLQQSGPELVKPGSSVKISCKASRNTFTDYNLDWVKQSHGKTLEWIGNVYPNNGVTGYNQKFRGKATLTVDKSSSTAYMELHSLTSEDSAVYYCALYYYDVSYWGQGTLVTVSA
# VL: QIVLTQSPAIMSASPGEKVTMTCSASSSVSYMHWYQQKSGTSPKRWIYDTSKLASGVPARFSGSGSGTSYSLTISSMEAEDAATYFCHQWRSNPYTFGGGTKLEIKR
# Biological target: abnormal human PrP (disease associated PrP, including PrPSc) from vCJD brain homogenate, blood or ur (human, UniProt P04156 23-230)
binder,measurement,value
B1,ratio relative to cut off,1.17
